Assay results as given in doi:10.1101/2020.12.23.423990.
“And” between values parts separate entries of the source, which are not always exact repeats. Identical values can stand only once.

Biological target: nucleocapsid variant NC-1 (circularly permuted Aquifex aeolicus lumazine synthase with the arginine-rich peptide λN+ appended) (Aquifex aeolicus)
Assay: cryo-EM structure

nucleocapsid variant NC-1 (circularly permuted Aquifex aeolicus lumazine synthase with the arginine-rich peptide λN+ appended)
stoichiometry N: 180 and 120
